Test results reported in PMC11871066, “Structure-based discovery of hydrocarbon-stapled paxillin peptides that block FAK scaffolding in cancer” (Nature Communications, 2025).

Assays:
[1] = molecular target: Recombinant FAK FAT protein (fluorescence polarization assay) (human) (UniProt Q05397); assay: FP
[2] = molecular target: Biotinylated AviTag FAK FAT protein (UniProt Q05397); assay: SPR; conditions: left panel, two-site binding model, peptide 200 µM to 49 nM, n = 5, X = olefinic amino acids joined by an i,i + 7 hydrocarbon staple
Sequence of Biotinylated AviTag FAK FAT protein (Q05397 whole entry): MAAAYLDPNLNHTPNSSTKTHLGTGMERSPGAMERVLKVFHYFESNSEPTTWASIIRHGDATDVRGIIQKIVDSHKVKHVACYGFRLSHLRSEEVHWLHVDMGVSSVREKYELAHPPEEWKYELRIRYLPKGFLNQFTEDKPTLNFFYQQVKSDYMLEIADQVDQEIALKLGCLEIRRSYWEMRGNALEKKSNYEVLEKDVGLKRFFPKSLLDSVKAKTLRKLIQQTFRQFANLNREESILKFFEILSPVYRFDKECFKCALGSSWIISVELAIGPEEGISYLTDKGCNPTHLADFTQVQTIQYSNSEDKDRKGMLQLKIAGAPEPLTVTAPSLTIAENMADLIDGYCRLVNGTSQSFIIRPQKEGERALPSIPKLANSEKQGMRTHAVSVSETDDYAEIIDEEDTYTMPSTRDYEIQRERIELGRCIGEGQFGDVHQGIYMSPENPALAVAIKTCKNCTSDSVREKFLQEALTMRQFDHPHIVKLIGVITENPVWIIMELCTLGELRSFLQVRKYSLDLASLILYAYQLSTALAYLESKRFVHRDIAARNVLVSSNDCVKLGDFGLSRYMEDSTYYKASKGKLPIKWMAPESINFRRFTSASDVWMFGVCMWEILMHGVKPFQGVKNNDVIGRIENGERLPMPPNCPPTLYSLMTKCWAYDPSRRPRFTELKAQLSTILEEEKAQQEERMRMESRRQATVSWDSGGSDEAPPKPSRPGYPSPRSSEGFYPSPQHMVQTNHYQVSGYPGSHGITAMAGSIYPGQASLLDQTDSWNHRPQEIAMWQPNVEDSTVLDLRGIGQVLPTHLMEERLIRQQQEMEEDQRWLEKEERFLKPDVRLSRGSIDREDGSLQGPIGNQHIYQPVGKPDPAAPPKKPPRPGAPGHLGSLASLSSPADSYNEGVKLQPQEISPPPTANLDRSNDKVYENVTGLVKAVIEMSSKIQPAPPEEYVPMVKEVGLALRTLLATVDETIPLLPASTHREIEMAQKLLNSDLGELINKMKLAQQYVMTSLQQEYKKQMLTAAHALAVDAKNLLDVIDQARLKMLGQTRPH

Sequence of Recombinant FAK FAT protein (fluorescence polarization assay) (human) (Q05397 whole entry): as above
Sequence of Negative control peptide 2014 (1907 with L145E and L152E) (P49023 whole entry L145E/L152E, looked up, tested part not stated): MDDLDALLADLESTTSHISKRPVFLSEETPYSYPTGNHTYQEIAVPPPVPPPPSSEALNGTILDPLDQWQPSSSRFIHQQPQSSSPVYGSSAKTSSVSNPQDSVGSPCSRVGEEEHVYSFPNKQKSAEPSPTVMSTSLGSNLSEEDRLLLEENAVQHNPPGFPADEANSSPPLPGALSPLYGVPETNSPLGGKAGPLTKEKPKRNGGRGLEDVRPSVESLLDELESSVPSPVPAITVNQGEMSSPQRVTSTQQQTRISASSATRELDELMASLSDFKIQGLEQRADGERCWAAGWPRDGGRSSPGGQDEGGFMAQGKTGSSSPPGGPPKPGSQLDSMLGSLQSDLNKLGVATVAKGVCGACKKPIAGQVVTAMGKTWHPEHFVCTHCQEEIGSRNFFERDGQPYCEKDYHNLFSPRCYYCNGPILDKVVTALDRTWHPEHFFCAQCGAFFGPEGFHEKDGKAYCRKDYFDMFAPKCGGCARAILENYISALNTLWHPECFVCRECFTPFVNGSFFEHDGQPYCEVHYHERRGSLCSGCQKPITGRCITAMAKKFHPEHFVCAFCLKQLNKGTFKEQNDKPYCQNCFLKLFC

Ki [1]	Substance	Kd ([2]; KD1)	Kd ([2]; KD2)
> 1250 µM	Negative control peptide 2014 (1907 with L145E and L152E) (from UniProt P49023 141-153)		
	Paxillin LD2 peptide (141-…-153) S143X; L150X	0.8 µM	8.7 µM
